According to patent US20160264649A1 (published 2016):

Columns and labels:
Assay in all cases: cell-based or functional assay
HIV-1 JR-CSF Env (gp160) = HIV-1 JR-CSF Env (gp160) (HIV-1 isolate JR-CSF, UniProt P20871 32-848)
HIV-1 SF162 Env [1] = biological target: T1, HIV-1 SF162 Env (HIV-1 strain SF162, UniProt P19550 32-847)
HIV-1 94UG103 Env = HIV-1 94UG103 Env (HIV-1 strain 94UG103)
HIV-1 92BR020 Env = HIV-1 92BR020 Env (HIV-1 strain 92BR020)
HIV-1 93IN905 Env = HIV-1 93IN905 Env (HIV-1 strain 93IN905)
HIV-1 IAVI_C22 Env = HIV-1 IAVI_C22 Env (HIV-1 strain IAVI C22)
HIV-1 92TH021 Env = HIV-1 92TH021 Env (HIV-1 strain 92TH021)
HIV-1 NL43 Env = HIV-1 NL43 Env (HIV-1 strain NL43)
aMLV Env = aMLV Env (aMLV)
HIV-1 SF162 Env [2] = biological target: T1, HIV-1 SF162 Env; remark: listed apart in the source

Sequence of HIV-1 JR-CSF Env (gp160) (P20871 32-848): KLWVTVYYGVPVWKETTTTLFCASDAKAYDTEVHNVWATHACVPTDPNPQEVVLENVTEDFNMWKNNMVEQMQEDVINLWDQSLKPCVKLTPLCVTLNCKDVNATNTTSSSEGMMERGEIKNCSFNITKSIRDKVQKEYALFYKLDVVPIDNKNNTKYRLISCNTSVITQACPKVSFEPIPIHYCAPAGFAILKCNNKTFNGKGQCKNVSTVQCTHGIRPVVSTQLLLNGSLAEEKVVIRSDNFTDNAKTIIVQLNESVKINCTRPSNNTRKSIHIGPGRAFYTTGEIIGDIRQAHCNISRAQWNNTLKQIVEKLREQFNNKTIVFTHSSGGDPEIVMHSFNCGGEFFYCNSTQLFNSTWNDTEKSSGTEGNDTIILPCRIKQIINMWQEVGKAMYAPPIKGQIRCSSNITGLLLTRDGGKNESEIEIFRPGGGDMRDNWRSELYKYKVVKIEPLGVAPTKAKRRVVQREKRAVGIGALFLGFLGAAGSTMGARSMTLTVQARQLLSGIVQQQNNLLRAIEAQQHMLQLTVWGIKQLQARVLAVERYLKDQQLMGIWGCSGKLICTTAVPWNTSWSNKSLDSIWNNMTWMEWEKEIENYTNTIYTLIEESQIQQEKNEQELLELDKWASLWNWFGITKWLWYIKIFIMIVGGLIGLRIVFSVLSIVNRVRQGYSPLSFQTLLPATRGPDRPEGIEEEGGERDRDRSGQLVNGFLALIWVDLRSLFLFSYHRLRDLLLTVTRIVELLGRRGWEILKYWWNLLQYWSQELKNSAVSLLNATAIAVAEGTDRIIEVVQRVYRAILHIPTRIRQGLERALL

Binder	IC50 neutralization, 1 hour virus/Ab incubation (HIV-1 JR-CSF Env (gp160))	IC50 neutralization, 18 hour virus/Ab incubation (HIV-1 JR-CSF Env (gp160))	IC50 neutralization, 1 hour virus/Ab incubation (HIV-1 SF162 Env [1])	IC50 neutralization, 18 hour virus/Ab incubation (HIV-1 SF162 Env [1])	IC50 neutralization, 1 hour virus/Ab incubation (HIV-1 94UG103 Env)	IC50 neutralization, 18 hour virus/Ab incubation (HIV-1 94UG103 Env)	IC50 neutralization, 1 hour virus/Ab incubation (HIV-1 92BR020 Env)	IC50 neutralization, 18 hour virus/Ab incubation (HIV-1 92BR020 Env)	IC50 neutralization, 1 hour virus/Ab incubation (HIV-1 93IN905 Env)	IC50 neutralization, 18 hour virus/Ab incubation (HIV-1 93IN905 Env)	IC50 neutralization, 1 hour virus/Ab incubation (HIV-1 IAVI_C22 Env)	IC50 neutralization, 18 hour virus/Ab incubation (HIV-1 IAVI_C22 Env)	IC50 neutralization, 1 hour virus/Ab incubation (HIV-1 92TH021 Env)	IC50 neutralization, 18 hour virus/Ab incubation (HIV-1 92TH021 Env)	IC50 neutralization, 1 hour virus/Ab incubation (HIV-1 NL43 Env)	IC50 neutralization, 18 hour virus/Ab incubation (HIV-1 NL43 Env)	IC50 neutralization, 1 hour virus/Ab incubation (aMLV Env)	IC50 neutralization, 18 hour virus/Ab incubation (aMLV Env)	Neutralization Index SF162 (clonal H and L transfectant) (HIV-1 SF162 Env [2])
1456_P20 (PG20) (antibody, human IgG1, kappa, V domains shown) VH: QVRLVQSGPEVKKPGSSVTVSCQASGGTFSSYAFTWVRQAPGQGLEWLGMVTPIFGEAKYSQRFEGRVTITADESTSTTSIELRGLTSEDTAIYYCARDRRAVPIATDNWLDPWGQGTLVTVSS VL: DIQLTQSPSSLSASVGDRVSITCRASQTINNYLNWYQQTPGKAPKLLIYGASNLQNGVPSRFSGSGSGTDFTLTISSLQPEDFATYYCQQSFSTPRTFGQGTRLDIKR	> 50 µg/mL	> 50 µg/mL	0.195 µg/mL	0.0661 µg/mL	> 50 µg/mL	> 50 µg/mL	> 50 µg/mL	> 50 µg/mL	> 50 µg/mL	3.84 µg/mL	> 50 µg/mL	> 50 µg/mL	> 50 µg/mL	> 50 µg/mL	0.2 µg/mL	0.05 µg/mL	> 50 µg/mL	> 50 µg/mL	
1460_G14 (PGG14) (antibody, human IgG1, kappa, V domains shown) VH: QVLLVQSGTEVKKPGSSVKVSCQASGGAFSSYAFSWVRQAPGQGLEWMGMITPVFGETKYAPRFQGRLTLTAEESLSTTYMELRSLTSDDTAFYYCTRDRRVVPMATDNWLDPWGQGTLVTVSS VL: DIQLTQSPSSLSASVGDRVTVTCRASQTIHTYLNWYQQIPGKAPKLLIYGASTLQSGVPSRFSGSGSGTDFTLTINSLQPEDFATYYCQQSYSTPRTFGQGTRLDIKR					> 50 µg/mL	> 50 µg/mL	> 50 µg/mL	> 50 µg/mL	> 50 µg/mL	3.17 µg/mL	> 50 µg/mL	> 50 µg/mL	> 50 µg/mL	> 50 µg/mL	0.17 µg/mL	0.05 µg/mL	> 50 µg/mL	> 50 µg/mL	39.4
1443_C16 (PG16) (TCN-116) (antibody, V domains shown) VH: QEQLVESGGGVVQPGGSLRLSCLASGFTFHKYGMHWVRQAPGKGLEWVALISDDGMRKYHSDSMWGRVTISRDNSKNTLYLQFSSLKVEDTAMFFCAREAGGPIWHDDVKYYDFNDGYYNYHYMDVWGKGTTVTVSS VL: QSALTQPASVSGSPGQTITISCNGTSSDVGGFDSVSWYQQSPGKAPKVMVFDVSHRPSGISNRFSGSKSGNTASLTISGLHIEDEGDYFCSSLTDRSHRIFGGGTKVTVLG	< 0.0025 µg/mL	< 0.0025 µg/mL	> 50 µg/mL	> 50 µg/mL	0.0211 µg/mL	0.0085 µg/mL	> 50 µg/mL	> 50 µg/mL	0.33 µg/mL	0.255 µg/mL	0.114 µg/mL	0.106 µg/mL	0.136 µg/mL	0.0435 µg/mL	< 0.0025 µg/mL	4.99 µg/mL	> 50 µg/mL	> 50 µg/mL	0.67
1495_C14 (PGC14) (antibody, human IgG1, lambda, V domains shown) VH: DGHLVQSGVEVKKTGATVKISCKVSGYSFIDYYLHWVQRAPGKGLEWVGLIDPENGEARYAEKFQGRVTIIADTSIDTGYMEMRSLKSEDTAVYFCAAGAVGADSGSWFDPWGQGTLVTVSS VL: SYELTQPPSVSVSPGQTASITCSGSKLGDKYVSWYQLRPGQSPILVMYENDRRPSGIPERFSGSNSGDTATLTISGTQALDEADFYCQAWETTTTTFVFFGGGTQLTVLG	> 50 µg/mL	> 50 µg/mL	0.0069 µg/mL	< 0.0025 µg/mL	> 50 µg/mL	> 50 µg/mL	1.17 µg/mL	0.244 µg/mL	> 50 µg/mL	0.146 µg/mL	> 50 µg/mL	13.4 µg/mL	> 50 µg/mL	> 50 µg/mL	0.35 µg/mL	0.15 µg/mL	> 50 µg/mL	> 50 µg/mL	
1496_C09 (PG9) (TCN-109) (antibody, V domains shown) VH: QRLVESGGGVVQPGSSLRLSCAASGFDFSRQGMHWVRQAPGQGLEWVAFIKYDGSEKYHADSVWGRLSISRDNSKDTLYLQMNSLRVEDTATYFCVREAGGPDYRNGYNYYDFYDGYYNYHYMDVWGKGTTVTVSS VL: QSALTQPASVSGSPGQSITISCNGTSNDVGGYESVSWYQQHPGKAPKVVIYDVSKRPSGVSNRFSGSKSGNTASLTISGLQAEDEGDYYCKSLTSTRRRVFGTGTKLTVLG			> 50 µg/mL	> 50 µg/mL	0.334 µg/mL	0.0942 µg/mL	> 50 µg/mL	> 50 µg/mL	0.144 µg/mL	0.0619 µg/mL	24.9 µg/mL	2.11 µg/mL	0.0612 µg/mL	0.0571 µg/mL	0.294 µg/mL	38 µg/mL	> 50 µg/mL	> 50 µg/mL	
1496 C09 γ3 017 + 1496 C09 λ3 024 (antibody, V domains shown) VH: QRLVESGGGVVQPGSSLRLSCAASGFDFSRQGMHWVRQAPGQGLEWVAFIKYDGSEKYHADSVWGRLSISRDNSKDTLYLQMNSLRVEDTATYFCVREAGGPDYRNGYNYYDFYDGYYNYHYMDVWGKGTTVTVSS VL: QSALTQPASVSGSPGQTITISCNGTSSDVGGFDSVSWYQQSPGKAPKVMVFDVSHRPSGISNRFSGSKSGNTASLTISGLHIEDEGDYFCSSLTDRSHRIFGGGTKVTVLG																			0.94
